B1: Ydj1 (natural protein, yeast, UniProt P25491 1-409, looked up)
chain: MVKETKFYDILGVPVTATDVEIKKAYRKCALKYHPDKNPSEEAAEKFKEASAAYEILSDPEKRDIYDQFGEDGLSGAGGAGGFPGGGFGFGDDIFSQFFGAGGAQRPRGPQRGKDIKHEISASLEELYKGRTAKLALNKQILCKECEGRGGKKGAVKKCTSCNGQGIKFVTRQMGPMIQRFQTECDVCHGTGDIIDPKDRCKSCNGKKVENERKILEVHVEPGMKDGQRIVFKGEADQAPDVIPGDVVFIVSERPHKSFKRDGDDLVYEAEIDLLTAIAGGEFALEHVSGDWLKVGIVPGEVIAPGMRKVIEGKGMPIPKYGGYGNLIIKFTIKFPENHFTSEENLKKLEEILPPRIVPAIPKKATVDECVLADFDPAKYNRTRASRGGANYDSDEEEQGGEGVQCASQ
B2: Sis1 (natural protein, yeast, UniProt P25294 1-352, looked up)
chain: MVKETKLYDLLGVSPSANEQELKKGYRKAALKYHPDKPTGDTEKFKEISEAFEILNDPQKREIYDQYGLEAARSGGPSFGPGGPGGAGGAGGFPGGAGGFSGGHAFSNEDAFNIFSQFFGGSSPFGGADDSGFSFSSYPSGGGAGMGGMPGGMGGMHGGMGGMPGGFRSASSSPTYPEEETVQVNLPVSLEDLFVGKKKSFKIGRKGPHGASEKTQIDIQLKPGWKAGTKITYKNQGDYNPQTGRRKTLQFVIQEKSHPNFKRDGDDLIYTLPLSFKESLLGFSKTIQTIDGRTLPLSRVQPVQPSQTSTYPGQGMPTPKNPSQRGNLIVKYKVDYPISLNDAQKRAIDENF
B3: YSY (other, yeast, UniProt P25491 1-105, looked up)
chain: MVKETKFYDILGVPVTATDVEIKKAYRKCALKYHPDKNPSEEAAEKFKEASAAYEILSDPEKRDIYDQFGEDGLSGAGGAGGFPGGGFGFGDDIFSQFFGAGGAQNEDAFNIFSQFFGGSSPFGGADDSGFSFSSYPSGGGAGMGGMPGGMGGMHGGMGGMPGGFRSASSSPTYPEEETVQVNLPVSLEDLFVGKKKSFKIGRKGPHGASEKTQIDIQLKPGWKAGTKITYKNQGDYNPQTGRRKTLQFVIQEKSHKSFKRDGDDLVYEAEIDLLTAIAGGEFALEHVSGDWLKVGIVPGEVIAPGMRKVIEGKGMPIPKYGGYGNLIIKFTIKFPENHFTSEENLKKLEEILPPRIVPAIPKKATVDECVLADFDPAKYNRTRASRGGANYDSDEEEQGGEGVQCASQ
B4: SYS (other, yeast, UniProt P25294 1-121, looked up)
chain: MVKETKLYDLLGVSPSANEQELKKGYRKAALKYHPDKPTGDTEKFKEISEAFEILNDPQKREIYDQYGLEAARSGGPSFGPGGPGGAGGAGGFPGGAGGFSGGHAFSNEDAFNIFSQFFGGAGGAQRPRGPQRGKDIKHEISASLEELYKGRTAKLALNKQILCKECEGRGGKKGAVKKCTSCNGQGIKFVTRQMGPMIQRFQTECDVCHGTGDIIDPKDRCKSCNGKKVENERKILEVHVEPGMKDGQRIVFKGEADQAPDVIPGDVVFIVSERPHPNFKRDGDDLIYTLPLSFKESLLGFSKTIQTIDGRTLPLSRVQPVQPSQTSTYPGQGMPTPKNPSQRGNLIVKYKVDYPISLNDAQKRAIDENF

Biological target: the molecule itself
Experiment: SAXS

Stoichiometry N, 2:
B1
B2
B3
B4

From publication PMC2613655 (Journal of molecular biology, 2008)
